By stoichiometry N is commonly meant a count of units in the complex or per binding partner.

Here are results for one substance from paper doi:10.1101/2019.12.26.888669.

The target in the assay is Escherichia coli thiol peroxidase, oxidized (disulfide) state (Escherichia coli) (UniProt P0A862). As to the kind of experiment: SEC-MALS. In general terms: SEC sorts molecules by how far they enter the pores of the column.

On to “Escherichia coli thiol peroxidase, oxidized (disulfide) state (from UniProt P0A862 1-168) (enzyme)”, for which the stoichiometry N amounted to 3.
